Measurements reported in paper PMC11341859.

Assays:
[1] = biological target: LY1 ORF1 ΔC-term (1-609) (Betatorquevirus isolate LY1 (TTMV-LY1)); test: cryo-EM structure; Expi293-derived ΔC-term virus-like particles, 0.4 mg/ml, Titan Krios 300 kV, 2.69 Å
[2] = biological target: LY1 ΔARM fragment (ORF1 with residues 2-45 deleted, C-terminus removed by proteolysis in insect cells) (Betatorquevirus isolate LY1 (TTMV-LY1)); test: cryo-EM structure; Sf9-derived ΔARM fragment virus-like particles, 0.3 mg/ml on graphene oxide grid, Glacios 200 kV, I1 symmetry, 3.9 Å

| Substance | stoichiometry N [1] | stoichiometry N [2] |
| --- | --- | --- |
| LY1 ORF1 ΔC-term (1-609) (domain or fragment) | 60 | – |
| LY1 ΔARM fragment (ORF1 with residues 2-45 deleted, C-terminus removed by proteolysis in insect cells) (domain or fragment) | – | 60 |
